Values quoted from earlier work in patent US20250341526A1, “NOVEL DYES” (Quantum-Si Incorporated, priority 2024, published 2025).

Tested on: amino acid at a terminal position of a polypeptide
Conditions: Table 1, ClpS proteins; amino acid at terminal position; inferred from literature and/or demonstrated by the inventors; cited from earlier work

Row | Molecule | Binding Pref.
1 | PS551: ClpS amino acid recognition protein, SEQ ID NO: 65 (protein, listed as Rubrobacter indicoceani) MPSAAPAKPKTKRQSRTQGMPPYNVVLLDDDDHTYGYVIEMLNKVFGHPPEKGFELATEVDKNGRVIVMTTNLEVAELKRDEVHAFGPDPLMPRSKGSMSAVVERAG | I, L, V
2 | PS427: ClpS amino acid recognition protein, SEQ ID NO: 50 (protein) MSTKEKVKERVREKEAISFNNEIIVYNDDVNTFDHVIETLIRVCNHTPEQAEQCSLIVHYNGKCTVKTGSMDKLKPQCTQLLEAGLSAEIV | F, W
3 | PS422: ClpS amino acid recognition protein, SEQ ID NO: 45 (protein) MTQIKPQTIPDTDVISQTQSDWQMPDLYAVIMHNDDYTTMDFVVFLLNAVFDKPIEQAYQLMMQIHQTGRAVVAILPYEIAEMKVDEATSLAEQEQFPLFISIEQA | F, Y, W, L
4 | PS425: ClpS amino acid recognition protein, SEQ ID NO: 48 (protein) MTHYFSNILRDQESPKINPKELEQIDVLEEKEHQIILYNDDVNTFEHVIDCLVKICEHNYLQAEQCAYIVHHSGKCSVKTGSLDELVPKCNALLEEGLSAEVV | F, Y, W, L
5 | PS553: ClpS amino acid recognition protein, SEQ ID NO: 67 (protein, listed as Planctomycetes bacterium) MPASASAVTEPPVSLPEAAAPRPKDRPKRQPRYHVILWNDDDHTYQYVVAMLRQLFGHPPEKGFTLAKQVDKDGRVVVLTTTKEHAELKRDQIHAFGADRLLARSKGSMSASIEPEASTG | I, L, V
6 | PS545: ClpS amino acid recognition protein, SEQ ID NO: 59 (protein, listed as Planctomycetales bacterium) MSEPMTLPAIPQPRLKERTQRQPPYNVILLNDDDHSYEYVIAMLQVLFGYPREKGYQMAKEVDSTGRVILLTTTREHAELKQEQIHAFGPDPLMARCQGSMTAVIEPAV | I, L, V
7 | PS549: ClpS amino acid recognition protein, SEQ ID NO: 63 (protein, listed as Planctomycetes bacterium) MSESITTLPKKSRRLKEEEEQKTKRQPPYNVILLNDDDHTFEYVIFMLQKLFGHPPERGMQMAKEVHTTGRVIVMTTALELAELKRDQIHAFGPDPLIDRCKGSMSATIEPAPI | I, L, V
8 | PS435: ClpS amino acid recognition protein, SEQ ID NO: 58 (protein) MTLSVALGPDTQESTQTGTAVSTDTLTAPDIPWNLVIWNDPVNLMSYVSYVFQSYFGYSETKANKLMMEVHKKGRSIVAHGSKEQVEQHAVAMHGYGLWATVEKATGGNSGGGKSGGPGKGKGKRG | F, Y, W, L
9 | PS548: ClpS amino acid recognition protein, SEQ ID NO: 62 (protein, listed as Gemmataceae bacterium) MSDTITLPEEKTDVRTKRQPPYHVILLNDDDHTYQYVIYMLQTLFGHPPETGFKMAQEVDKTGRVIVDTTSLERAELKRDQIHAFGPDPYIERCKGSMSAMIEPSE | I, L, V
10 | PS550: ClpS amino acid recognition protein, SEQ ID NO: 64 (protein, listed as Planctomycetes bacterium) MPTFTEPEVVNDTRILPPYHVILLNDDDHTYEYVIHMLQTLFGHPQERGFQLAVEVDKKGKAIVFTTSKEHAEFKRDQIHAFGADPLSSKNCKGSMSAVIEPSF | I, L, V
11 | PS430: ClpS amino acid recognition protein, SEQ ID NO: 53 (protein) MQPFEETYTDVLDEVVDTDVHNLVVFNDDVNTFDHVIETLIDVCKHTPEQAEQCTLLIHYKGKCSVKNGSWEELVPMRNEICRRGISAEVLK | F, Y, W, L
12 | PS417: ClpS amino acid recognition protein, SEQ ID NO: 40 (protein) MSNLDTDVLIDEKVKVVTTEPEKYRVILLNDDVTPMDFVINILVSIFKHSTDTAKDLTLKIHKEGSAIVGVYTYEIAEQKGIEATNESRQHGFPLQVKIERENTL | F, Y, W
13 | PS371: ClpS amino acid recognition protein, SEQ ID NO: 4 (protein) MATETIERPRTRDPGSGLGGHWLVIVLNDDHNTFDHVAKTLARVIPGVTVDDGYRFADQIHQRGQAIVWRGPKEPAEHYWEQLQDAGLSMAPLERH | F, Y, W, L
14 | PS418: ClpS amino acid recognition protein, SEQ ID NO: 41 (protein) MSDHNIDHDTSVAVHLDVVVREPPMYRVVLLNDDFTPMEFVVELLMHFFRKTAEQATQIMLNIHHEGVGVCGTYPREIAETKVAQVHQHARTNGHPLKCRMEPS | F, Y, W, L
15 | PS432: ClpS amino acid recognition protein, SEQ ID NO: 55 (protein) MIGVEARTSSAPELAIETEIRLAGLWHVIVINDPVNLMSYVVMVLRKIFGFDDTKARKHMLEVHENGRSIVWSGEREPAEAYANTLHQWHLSAVLERDETD | F, W
16 | PS433: ClpS amino acid recognition protein, SEQ ID NO: 56 (protein) MMSSLKECSIQALPSLDEKTKTEEDLSVPWKVIVLNDPVNLMSYVVMVFRKVFGYNENKATKHMMEVHQLGKSVLWTGQREEAECYAYQLQRWRLQTILEKDD | F, Y, W, L
17 | PS421: ClpS amino acid recognition protein, SEQ ID NO: 44 (protein) MTTPNKRPEFEPEIGLEDEVGEPRKYKVLLHNDDYTTMDFVVQVLIEVFRKSETEATHIMLTIHEKGVGTCGIYPAEVAETKINEVHTRARREGFPLRASMEEV | F, Y, W, L
18 | PS426: ClpS amino acid recognition protein, SEQ ID NO: 49 (protein) MSIIEKTQENVAILEKVSINHEIILYNDDVNTFDHVIETLIRVCNHEELQAEQCAILVHYTGKCAVKTGSFDELQPLCLALLDAGLSAEIT | F, Y, W, L
19 | PS423: ClpS amino acid recognition protein, SEQ ID NO: 46 (protein) MAPTPAGAAVLDKQQQRRHKHASRYRVLLHNDPVNTMEYVVESLRQVVPQLSEQDAIAVMVEAHNTGVGLVIVCDIEPAEFYCEQLKTKGLTSSIEPED | F, Y, W
20 | PS419: ClpS amino acid recognition protein, SEQ ID NO: 42 (protein) MEKEQSLCKEKTHVELSEPKHYKVVFHNDDFTTMDFVVKVLQLVFFKSQLQAEDLTMKIHLEGSATAGIYSYDIAQSKAQKTTQMAREEGFPLRLTVEPEDN | F, Y, W, L
21 | PS552: ClpS amino acid recognition protein, SEQ ID NO: 66 (protein, Fimbriiglobus ruber) MSKTSTLPEVESESAQKLKYQPPYHVILLNDDDHSYVYVITMLKELFGHPEQKGYQLADAVDKQGRAIVFTTTREHAELKQEQIHAYGPDPTIPRCKGAMTAVIEPAE | I, L, V
22 | PS424: ClpS amino acid recognition protein, SEQ ID NO: 47 (protein) MSVETIEKRSTTRKLAPQYRVLLHNDDYNSMEYVVQVLMTSVPSITQPQAVNIMMEAHNSGLALVITCAQEHAEFYCETLKGHGLSSTIEPD | F, Y, W
23 | PS434: ClpS amino acid recognition protein, SEQ ID NO: 57 (protein) MSRLPWKQEAKFAATVIIDFPDATLEAPTIEKKEATEQQIEMPWNVVVHNDPVNLMSYVTMVFQRVFGYPRERAEKHMLEVHHSGRSILWSGLRERAELYVQQLHGYLLLATIEKTV | F, Y, W, L
24 | PS546: ClpS amino acid recognition protein, SEQ ID NO: 60 (protein, listed as Planctomycetia bacterium) MSDTITLPGRPEVERDERTRRQPPYNVILHNDDDHTFEYVIVMLNQLFGYPPEKGYEMAKEVHLNGRVIVLTTSKEHAELKRDQIHAFGPDPFSSKDCKGSMSASIEPAY | I, L, V
25 | PS420: ClpS amino acid recognition protein, SEQ ID NO: 43 (protein) MSDYSNQISQAGSGVAEDASITLPPERKVVFYNDDFTTMEFVVDVLVSIFNKSHSEAEELMQTVHQEGSSVVGVYTYDIAVSRTNLTIQAARKNGFPLRVEVE | F, Y, W, L
26 | PS372: ClpS amino acid recognition protein, SEQ ID NO: 5 (protein) MAFPARGKTAPKNEVRRQPPYNVILLNDDDHTYRYVIEMLQKIFGFPPEKGFQIAEEVDRTGRVILLTTSKEHAELKQDQVHSYGPDPYLGRPCSGSMTCVIEPAV | L, I, V
27 | PS547: ClpS amino acid recognition protein, SEQ ID NO: 61 (protein, listed as Gemmataceae bacterium) MGFPTDFRQSIEISTPLGSQQPRFSNASSEPALADPVLVINPRIQPRYHVILLNDDDHTYRYVIEMMLIVFGHPPEKGFLIAKEVDKAGRAICLTTSLEHAEFKQEQVHAYGADPYFGPKCKGSMTAVLEPAE | I, L, V
